Data reported in the supplement of paper PMC9732359.
± gives the uncertainty stated by the source.

Test: protein stability index of a GFP-peptide fusion (yeast GPS) (PSI 1-4); higher = more stable; sorted into four equal gates, so the index is relative within each strain
Procedure, shortened: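 Tiled 17-residue yeast protein peptides were fused downstream of GFP in a plasmid that also expresses Cherry, and the pooled library was carried in yeast. Mid-log cultures in leucine-free medium were sorted into four equal gates by GFP/Cherry fluorescence ratio, and plasmids from each gate were PCR-amplified and Illumina-sequenced, with reads assigned to strains by barcodes. The protein stability index for each peptide was each gate's read frequency times its gate number, summed.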

NVFARLSRLLSLWEVFQ [RPC82]
protein stability index (doa10∆): 1.78 ± 0.16
protein stability index (pdr5∆): 2.06 ± 0.13
protein stability index (san1∆): 2.79 ± 0.14
protein stability index (ubr1∆): 2.38 ± 0.067

QWSATWIAMRREKRDRT [PRP8]
protein stability index (doa10∆): 2.23 ± 0.089
protein stability index (pdr5∆): 2.64 ± 0.081
protein stability index (san1∆): 2.76 ± 0.18
protein stability index (ubr1∆): 2.73 ± 0.095

VKQIAPAELEGLLDLER [FAS2]
protein stability index (doa10∆): 3.11 ± 0.3

KNDSAEVRQETQPKAEA [NUT1]
protein stability index (doa10∆): 3.35 ± 0.15
protein stability index (pdr5∆): 3.26 ± 0.11
protein stability index (san1∆): 3.36 ± 0.055
protein stability index (ubr1∆): 3.38 ± 0.083

NIRNNIESQNLDLIPHS [SRB4]
protein stability index (doa10∆): 2.62 ± 0.052
protein stability index (pdr5∆): 2.92 ± 0.046
protein stability index (san1∆): 2.62 ± 0.05
protein stability index (ubr1∆): 2.7 ± 0.029

FVNGVATSFSRKKARTF [FAS2]
protein stability index (doa10∆): 1.85 ± 0.12
protein stability index (pdr5∆): 1.76 ± 0.11
protein stability index (san1∆): 1.22 ± 0.23
protein stability index (ubr1∆): 1.14 ± 0.074

TATASLGVIHKGNLLEG [RPN2]
protein stability index (doa10∆): 2.96 ± 0.16
protein stability index (pdr5∆): 1.84 ± 0.082
protein stability index (san1∆): 1.98 ± 0.16
protein stability index (ubr1∆): 2.72 ± 0.081

EKIMENKYPELLGKDNE [AAR2]
protein stability index (doa10∆): 3.04 ± 0.073
protein stability index (pdr5∆): 3.24 ± 0.062
protein stability index (san1∆): 3.24 ± 0.039
protein stability index (ubr1∆): 2.96 ± 0.045

TKLKNAVQNESVSSPIE [QCR2]
protein stability index (doa10∆): 3.05 ± 0.11
protein stability index (pdr5∆): 3.1 ± 0.084
protein stability index (san1∆): 3.25 ± 0.094
protein stability index (ubr1∆): 3.05 ± 0.067

ILYGLVDKGAIMKNKDF [YJL039C/NUP192]
protein stability index (pdr5∆): 2.32 ± 0.2
protein stability index (san1∆): 3.06 ± 0.21
protein stability index (ubr1∆): 1.58 ± 0.15

RENVKSKDEPVSKAVES [SIR4]
protein stability index (doa10∆): 3.58 ± 0.15
protein stability index (pdr5∆): 3.73 ± 0.12
protein stability index (san1∆): 2.93 ± 0.19
protein stability index (ubr1∆): 3.31 ± 0.18

DVKVSISHDDLQAVAVA [FAS2]
protein stability index (doa10∆): 2.66 ± 0.076
protein stability index (pdr5∆): 2.6 ± 0.055
protein stability index (san1∆): 1.61 ± 0.065
protein stability index (ubr1∆): 2.22 ± 0.049

KPETPKGPIIISKNPSN [SIR2]
protein stability index (doa10∆): 2.92 ± 0.063
protein stability index (pdr5∆): 3 ± 0.052
protein stability index (san1∆): 2.67 ± 0.06
protein stability index (ubr1∆): 2.88 ± 0.046

CRLFFTELASKDNAIYN [YCS4]
protein stability index (doa10∆): 1.3 ± 0.077
protein stability index (pdr5∆): 1.51 ± 0.055
protein stability index (san1∆): 1.1 ± 0.16
protein stability index (ubr1∆): 1.32 ± 0.047

HTSSNSREIAQPSSSRY [SMB1]
protein stability index (doa10∆): 3.17 ± 0.11
protein stability index (pdr5∆): 2.97 ± 0.065
protein stability index (san1∆): 3.02 ± 0.054
protein stability index (ubr1∆): 3.22 ± 0.058

LHGLRSFYDAIFFNIPL [YJL039C/NUP192]
protein stability index (doa10∆): 2.61 ± 0.039
protein stability index (pdr5∆): 2.24 ± 0.042
protein stability index (san1∆): 2.309 ± 0.022
protein stability index (ubr1∆): 1.9 ± 0.034

LKKELKLLAKELEEQES [SMC2]
protein stability index (doa10∆): 2.81 ± 0.088
protein stability index (pdr5∆): 3.14 ± 0.063
protein stability index (san1∆): 2.9 ± 0.09
protein stability index (ubr1∆): 3.31 ± 0.07

IGGMRVDENGDPIWQHQ [RET1]
protein stability index (doa10∆): 3.13 ± 0.2
protein stability index (pdr5∆): 3.38 ± 0.19
protein stability index (san1∆): 2.88 ± 0.26
protein stability index (ubr1∆): 3.42 ± 0.092

DAGKLVYVTGGRNLGRI [RPS4A]
protein stability index (doa10∆): 2.76 ± 0.1
protein stability index (pdr5∆): 1.99 ± 0.12
protein stability index (san1∆): 3.08 ± 0.17
protein stability index (ubr1∆): 1.89 ± 0.28

PELFESLGIAQPKGVIL [RPT6]
protein stability index (doa10∆): 2.56 ± 0.052
protein stability index (pdr5∆): 2.82 ± 0.069
protein stability index (san1∆): 2.46 ± 0.092
protein stability index (ubr1∆): 2.54 ± 0.061

KKVVLRLECVKCKTRAQ [RPL42A]
protein stability index (doa10∆): 2.3 ± 0.12
protein stability index (pdr5∆): 2.03 ± 0.095
protein stability index (san1∆): 2.4 ± 0.16
protein stability index (ubr1∆): 2.09 ± 0.047

QSYFSQLKFEGFALNSD [BRR2]
protein stability index (doa10∆): 1.35 ± 0.05
protein stability index (pdr5∆): 1.26 ± 0.045
protein stability index (san1∆): 1.17 ± 0.094
protein stability index (ubr1∆): 1.43 ± 0.04

NEYVAKVSAREKSAYKF [FAS2]
protein stability index (doa10∆): 3.23 ± 0.082
protein stability index (pdr5∆): 3.16 ± 0.073
protein stability index (san1∆): 3.04 ± 0.093
protein stability index (ubr1∆): 3.32 ± 0.061

ESGLRPVSLLNSQLVGK [PCI8]
protein stability index (doa10∆): 3.31 ± 0.13
protein stability index (pdr5∆): 3.43 ± 0.096
protein stability index (san1∆): 3.27 ± 0.061
protein stability index (ubr1∆): 3.09 ± 0.27

NENDLKTYNCLHEKYLT [SMC1]
protein stability index (doa10∆): 2.2 ± 0.072
protein stability index (pdr5∆): 2.68 ± 0.053
protein stability index (san1∆): 2.11 ± 0.083
protein stability index (ubr1∆): 3.02 ± 0.056

NLFSSTGFKGLLIELQA [SRB2]
protein stability index (doa10∆): 2.6 ± 0.12
protein stability index (pdr5∆): 2.87 ± 0.069
protein stability index (san1∆): 2.92 ± 0.058
protein stability index (ubr1∆): 2.94 ± 0.042

KDFTNKNLIQLISLKLL [SRB8]
protein stability index (doa10∆): 1.28 ± 0.042
protein stability index (pdr5∆): 1.49 ± 0.035
protein stability index (san1∆): 1.66 ± 0.067
protein stability index (ubr1∆): 1.91 ± 0.032

LALEIIVRPAKGVATTR [RRP46]
protein stability index (doa10∆): 2.09 ± 0.058
protein stability index (pdr5∆): 2.18 ± 0.065
protein stability index (san1∆): 1.86 ± 0.078
protein stability index (ubr1∆): 2.25 ± 0.051

RMKQYLKTKLLEEVEGS [RPB7]
protein stability index (doa10∆): 3.09 ± 0.13
protein stability index (pdr5∆): 3.09 ± 0.1
protein stability index (san1∆): 3.11 ± 0.088
protein stability index (ubr1∆): 3.24 ± 0.13

YSRSVDKEWVFAALSDS [SSN2]
protein stability index (doa10∆): 1.44 ± 0.088
protein stability index (pdr5∆): 1.25 ± 0.06
protein stability index (san1∆): 1.41 ± 0.12
protein stability index (ubr1∆): 1.3 ± 0.043

KVTEKVLTQLTALALKY [CSI1]
protein stability index (doa10∆): 2.24 ± 0.044
protein stability index (pdr5∆): 2 ± 0.029
protein stability index (san1∆): 2 ± 0.039
protein stability index (ubr1∆): 2.13 ± 0.044

IKNLTVQLSPSNPQHII [RGR1]
protein stability index (doa10∆): 2.6 ± 0.052
protein stability index (pdr5∆): 2.74 ± 0.05
protein stability index (san1∆): 2.42 ± 0.062
protein stability index (ubr1∆): 2.67 ± 0.049

GINKNEEYRKQLDKKNE [SMC1]
protein stability index (doa10∆): 3.22 ± 0.12
protein stability index (pdr5∆): 2.62 ± 0.069
protein stability index (san1∆): 2.3 ± 0.082
protein stability index (ubr1∆): 2.58 ± 0.045

FHIACSVGNLEVVKSLY [NAS6]
protein stability index (doa10∆): 2.08 ± 0.078
protein stability index (pdr5∆): 2.39 ± 0.068
protein stability index (san1∆): 2.45 ± 0.056
protein stability index (ubr1∆): 2.67 ± 0.065

GELRDYIEDFLLVIGGN [YJR042W/NUP85]
protein stability index (doa10∆): 2.23 ± 0.075
protein stability index (pdr5∆): 2.38 ± 0.065
protein stability index (san1∆): 2.65 ± 0.08
protein stability index (ubr1∆): 1.74 ± 0.037

RKDKDAKFRLILIESRI [RPS13]
protein stability index (doa10∆): 1.52 ± 0.094
protein stability index (pdr5∆): 1.82 ± 0.12
protein stability index (san1∆): 1.9 ± 0.11
protein stability index (ubr1∆): 2.57 ± 0.11

SHFSLDQFITSLKCTDP [ITC1]
protein stability index (doa10∆): 2.09 ± 0.073
protein stability index (pdr5∆): 2.42 ± 0.079
protein stability index (san1∆): 2.35 ± 0.076
protein stability index (ubr1∆): 2.12 ± 0.1

LEEDSKKVNGTSYKKWS [PRP8]
protein stability index (doa10∆): 3.3 ± 0.14
protein stability index (pdr5∆): 3.41 ± 0.15
protein stability index (san1∆): 3.24 ± 0.075
protein stability index (ubr1∆): 3.03 ± 0.092

LSDYEVLKFLTDLEKKH [RPC17]
protein stability index (doa10∆): 3.38 ± 0.13
protein stability index (pdr5∆): 3.23 ± 0.12
protein stability index (san1∆): 3.08 ± 0.086
protein stability index (ubr1∆): 3.11 ± 0.13

LVLPPVVTSSVAESFTD [SNF2]
protein stability index (doa10∆): 2.13 ± 0.047
protein stability index (pdr5∆): 2.02 ± 0.057
protein stability index (san1∆): 2.39 ± 0.084
protein stability index (ubr1∆): 2.32 ± 0.053

VDNVWADVYAKALEGKD [RPP1B]
protein stability index (doa10∆): 3.14 ± 0.1
protein stability index (pdr5∆): 3.1 ± 0.16
protein stability index (san1∆): 3.35 ± 0.12
protein stability index (ubr1∆): 3.06 ± 0.11

NQLSQTNKLLFKRVSQT [NUT1]
protein stability index (doa10∆): 1.92 ± 0.042
protein stability index (pdr5∆): 1.36 ± 0.037
protein stability index (san1∆): 1.37 ± 0.083
protein stability index (ubr1∆): 1.38 ± 0.035

VEFINKMENFEFLPLSL [SRB8]
protein stability index (doa10∆): 3.08 ± 0.16
protein stability index (pdr5∆): 3 ± 0.069
protein stability index (san1∆): 3.1 ± 0.12
protein stability index (ubr1∆): 3.16 ± 0.097

SQSSNANICLTFLESIN [SIN4]
protein stability index (doa10∆): 2.42 ± 0.048
protein stability index (pdr5∆): 2.61 ± 0.054
protein stability index (san1∆): 2.55 ± 0.05
protein stability index (ubr1∆): 2.74 ± 0.048

LPLISTDVLEISKQRTF [YMR129W/POM152]
protein stability index (doa10∆): 2.17 ± 0.068
protein stability index (pdr5∆): 2.74 ± 0.06
protein stability index (san1∆): 2.46 ± 0.062
protein stability index (ubr1∆): 2.51 ± 0.049

EDISKATHLPKDNVEHL [RPN9]
protein stability index (doa10∆): 2.91 ± 0.084
protein stability index (pdr5∆): 3.13 ± 0.076
protein stability index (san1∆): 3.12 ± 0.091
protein stability index (ubr1∆): 3.26 ± 0.061

LRSKLFQFKLLQSNSKL [SMC4]
protein stability index (doa10∆): 1.84 ± 0.056
protein stability index (pdr5∆): 1.79 ± 0.053
protein stability index (san1∆): 1.59 ± 0.079
protein stability index (ubr1∆): 2.23 ± 0.037

VFVKKHHELIKVKHDSQ [SSN2]
protein stability index (doa10∆): 1.32 ± 0.07
protein stability index (pdr5∆): 1.29 ± 0.053
protein stability index (san1∆): 1.18 ± 0.095
protein stability index (ubr1∆): 1.35 ± 0.051

DYSINSRYEPKVFDCGD [PRE7]
protein stability index (doa10∆): 2.73 ± 0.076
protein stability index (pdr5∆): 2.59 ± 0.053
protein stability index (san1∆): 2.9 ± 0.068
protein stability index (ubr1∆): 2.59 ± 0.063

QMPLNSNGGNNMLPQRQ [SNF2]
protein stability index (doa10∆): 2.41 ± 0.047
protein stability index (pdr5∆): 2.79 ± 0.053
protein stability index (san1∆): 2.39 ± 0.064
protein stability index (ubr1∆): 2.54 ± 0.043

FTGNNSTPGGGSVFNMN [YOR098C/NUP1]
protein stability index (doa10∆): 2.9 ± 0.097
protein stability index (pdr5∆): 3.58 ± 0.19
protein stability index (ubr1∆): 3.03 ± 0.14
